T1: Bet1 1-118 (yeast, UniProt P22804 1-118)
T1 construct: Bet1, yeast ER-to-Golgi Qc-SNARE, residues 1-118 (not only the SNARE domain); also called Qc-SNARE; source: E. coli BL21 (DE3), purified (Ni2+-NTA, ion exchange)
T1 sequence (looked up): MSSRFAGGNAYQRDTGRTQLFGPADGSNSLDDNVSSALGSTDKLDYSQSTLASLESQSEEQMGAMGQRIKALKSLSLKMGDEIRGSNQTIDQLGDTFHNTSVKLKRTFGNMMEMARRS

T2: Sed5 211-320 (SNARE domain) (yeast, UniProt Q01590 211-320)
T2 construct: Sed5, yeast ER-to-Golgi Qa-SNARE, SNARE domain, residues 211-320; also called Qa-SNARE; source: E. coli BL21 (DE3), purified (Ni2+-NTA, ion exchange)
T2 sequence (looked up): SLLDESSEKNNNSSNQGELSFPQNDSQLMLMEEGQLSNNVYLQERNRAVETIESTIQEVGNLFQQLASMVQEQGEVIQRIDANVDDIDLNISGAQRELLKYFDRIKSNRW


Key:
[1] = molecular target: the molecule itself; assay: SEC; individual purified SNARE domains of the Bos1 variants (oligomeric state of single proteins); Superdex 75, PBS with 200 mM NaCl
[2] = molecular target: T1, Bet1 1-118; assay: fluorescence polarisation; fluorescence anisotropy over time; 500 nM OG-labelled Sec22 126-186 C131OG mixed with 2.7 uM Sed5 211-320, Bet1 1-118 and Bos1 151-221 or its mutants; PBS, 25°C; conditions: both partners purified
[3] = molecular target: T2, Sed5 211-320 (SNARE domain); assay: SEC; quaternary SNARE complexes assembled from equal amounts of purified Sed5 (211-320), Bet1 (1-118), Sec22 (126-186) and one Bos1 (151-221) variant, incubated overnight; Superdex 75, PBS with 200 mM NaCl; conditions: both partners purified
[4] = molecular target: T2, Sed5 211-320 (SNARE domain); assay: fluorescence polarisation; fluorescence anisotropy over time; 500 nM OG-labelled Sec22 126-186 C131OG mixed with 2.7 uM Sed5 211-320, Bet1 1-118 and Bos1 151-221 or its mutants; PBS, 25°C; conditions: both partners purified
[5] = molecular target: T1, Bet1 1-118; assay: SEC; quaternary SNARE complexes assembled from equal amounts of purified Sed5 (211-320), Bet1 (1-118), Sec22 (126-186) and one Bos1 (151-221) variant, incubated overnight; Superdex 75, PBS with 200 mM NaCl; conditions: both partners purified

Binder | binding result [2] | binding result [3] | binding result [4] | binding result [5] | binding result [1]
Bos1 151-221 wild type (SNARE domain) (domain or fragment, Saccharomyces cerevisiae, UniProt P25385 151-221, looked up, Bos1, Saccharomyces cerevisiae, SNARE domain, residues 151-221; Forms homo-oligomers of unstated size as the isolated SNARE domain; also called Bos1 wt; wild-type Bos1; source: E. coli BL21 (DE3), purified (Ni2+-NTA, ion exchange)) LYQGLQKEQSVFERGNAQLDYILEMGQQSFENIVEQNKILSKVQDRMSNGLRTLGVSEQTITSINKRVFKD | binds | binds | – | – | binds
Bos1 151-221 p.Gly176Trp (domain or fragment, Saccharomyces cerevisiae, UniProt P25385 151-221, looked up, Bos1, Saccharomyces cerevisiae, SNARE domain, residues 151-221, with Gly176Trp (orthologous to GOSR2 p.Gly144Trp); also called Bos1 p.Gly176Trp; source: E. coli BL21 (DE3), purified (Ni2+-NTA, ion exchange)) LYQGLQKEQSVFERGNAQLDYILEMWQQSFENIVEQNKILSKVQDRMSNGLRTLGVSEQTITSINKRVFKD | binds | – | binds | – | –

Further lines, with some results ahead:

binding result [2] | binding result [3] | binding result [4] | binding result [5] | Binder | binding result [1]
– | binds | – | binds | Bos1 151-221 p.Gly176Asp (domain or fragment, Saccharomyces cerevisiae, UniProt P25385 151-221, looked up, Bos1, Saccharomyces cerevisiae, SNARE domain, residues 151-221, with the designed Gly176Asp mutation; also called Bos1 p.Gly176Asp; source: E. coli BL21 (DE3), purified (Ni2+-NTA, ion exchange)) LYQGLQKEQSVFERGNAQLDYILEMDQQSFENIVEQNKILSKVQDRMSNGLRTLGVSEQTITSINKRVFKD | binds
– | binds | – | binds | Bos1 151-221 p.Arg196del (domain or fragment, Saccharomyces cerevisiae, UniProt P25385 151-221, looked up, Bos1, Saccharomyces cerevisiae, SNARE domain, residues 151-221, with arginine 196 deleted (orthologous to GOSR2 p.Lys164del); also called Bos1 p.Arg196del; source: E. coli BL21 (DE3), purified (Ni2+-NTA, ion exchange)) LYQGLQKEQSVFERGNAQLDYILEMGQQSFENIVEQNKILSKVQDMSNGLRTLGVSEQTITSINKRVFKD | binds
